Source: paper PMC5589886

Key:
[1] = biological target: relaxin family peptide receptor-1 (human) (UniProt Q9HBX9)
[2] = biological target: relaxin family peptide receptor-1 (human) (UniProt Q9HBX9); remark: listed apart in the source
[3] = biological target: relaxin family peptide receptor-1 (human) (UniProt Q9HBX9); remark: listed apart in the source

Sequence of UniProt Q9HBX9 (Q9HBX9 whole entry): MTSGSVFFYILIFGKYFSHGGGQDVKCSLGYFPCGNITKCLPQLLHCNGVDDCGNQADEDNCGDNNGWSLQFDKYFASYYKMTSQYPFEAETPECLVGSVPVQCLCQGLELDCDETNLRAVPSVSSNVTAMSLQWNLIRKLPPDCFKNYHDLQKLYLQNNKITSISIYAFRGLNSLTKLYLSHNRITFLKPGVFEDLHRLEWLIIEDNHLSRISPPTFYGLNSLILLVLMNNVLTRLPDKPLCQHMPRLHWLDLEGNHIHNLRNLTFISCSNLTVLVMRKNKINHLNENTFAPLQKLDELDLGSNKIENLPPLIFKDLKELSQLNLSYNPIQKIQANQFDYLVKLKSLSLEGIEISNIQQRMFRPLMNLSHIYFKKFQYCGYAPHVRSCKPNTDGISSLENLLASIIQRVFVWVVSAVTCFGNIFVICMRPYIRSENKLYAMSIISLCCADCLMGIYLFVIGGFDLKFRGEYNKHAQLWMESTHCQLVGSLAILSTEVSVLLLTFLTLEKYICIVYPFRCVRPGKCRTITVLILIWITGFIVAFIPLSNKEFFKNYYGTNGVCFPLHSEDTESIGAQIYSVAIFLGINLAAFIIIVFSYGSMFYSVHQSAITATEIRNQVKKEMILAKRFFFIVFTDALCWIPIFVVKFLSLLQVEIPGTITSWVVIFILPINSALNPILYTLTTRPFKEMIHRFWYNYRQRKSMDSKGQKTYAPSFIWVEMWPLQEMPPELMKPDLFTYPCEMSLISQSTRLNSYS

- cAMP response, representative H2-RLX dose response in LX-2 cells (endogenous RXFP1), pEC50 [1]: 8.8 pEC50
- cAMP response, representative H2-RLX dose response in hHSCs (endogenous RXFP1), pEC50 [1]: 9.3 pEC50
- cAMP generation (TR-FRET Lance cAMP immunoassay), mean pEC50 of H2-RLX in HEK293 cells transduced with RXFP1 BacMam at 0.5%, 5% and 10% v/v (pEC50 9.7, 10.2 and 11.3) [2]: 11.3 pEC50
- cAMP response of LX-2 cells (endogenous RXFP1) to 60 min H2-RLX after 40 h culture on plastic, mean pEC50 (n = 7) [3]: 9.1 pEC50
- cAMP response of primary hHSCs (endogenous RXFP1) to 60 min H2-RLX after 40 h culture, mean pEC50 across three patient samples [3]: 9 pEC50
Substance: human relaxin-2 (ligand)
